# Source: patent US20230064978A1, “CYCLIC PEPTIDE RECEPTOR LANTHIONINE SYNTHETASE C-LIKE PROTEIN (LANCL) AND USES THEREOF” (LATERAL IP PTY LTD, priority 2019, published 2023)
# Bridges are numbered along the chain shown (N, C = ends). Where no end group is shown, it is not given here.
# Target: Recombinant human 6His-LaNCL1 protein (Homo sapiens, UniProt O43813)
# Experiment: In-vitro photolabelling of 6His-LanCL1 and LC-MS/MS to identify binding site
# Description: Recombinant human 6His-LaNCL1 protein (2 μM, 1 nmol, 53 μg) in 530 μL PBS was pre-incubated with 50 μM of LAT8881 or DMSO for 10 min and then treated with 25 μM LAT9991-PAL for another 30 min at RT in Nunc™ MicroWell™ 96-well plates (Thermo Fisher Scientific cat #167008) (final reaction volume, 530 μL). The samples were UV-irradiated (365 nm) for 20 min at 4° C. After UV-irradiation, the samples were split in two different samples containing 3 μg or 50 μg of protein.
# Protein samples (3 μg protein) were adjusted to 1% SDS and 10 mM DTT. After incubation for 1 h at 56° C., protein samples were treated with 30 mM iodoacetamide for 45 min at RT in the dark. Dry acetone (9 volumes) prechilled to −20° C. was added and the cloudy mixture was vortexed thoroughly and incubated at −20° C. overnight. After centrifugation (15,000×g for 10 min at 4° C.), the supernatants were poured off and the remaining pellets washed with −20° C. acetone. […] After removing the supernatants, the protein pellets were air-dried and dissolved in laemmli buffer, heated at 60° C. for 20 minutes and analyzed by in gel fluorescence scanning […]
# Peptides were analyzed by nanoLC-MS/MS with the Ultimate 3000 RSLC (Thermo Fisher Scientific) coupled online to a Q-Exactive Plus mass spectrometer with a NanoFlex source. […]
# Sequence of Recombinant human 6His-LaNCL1 protein (O43813 with tags, fused parts or gaps): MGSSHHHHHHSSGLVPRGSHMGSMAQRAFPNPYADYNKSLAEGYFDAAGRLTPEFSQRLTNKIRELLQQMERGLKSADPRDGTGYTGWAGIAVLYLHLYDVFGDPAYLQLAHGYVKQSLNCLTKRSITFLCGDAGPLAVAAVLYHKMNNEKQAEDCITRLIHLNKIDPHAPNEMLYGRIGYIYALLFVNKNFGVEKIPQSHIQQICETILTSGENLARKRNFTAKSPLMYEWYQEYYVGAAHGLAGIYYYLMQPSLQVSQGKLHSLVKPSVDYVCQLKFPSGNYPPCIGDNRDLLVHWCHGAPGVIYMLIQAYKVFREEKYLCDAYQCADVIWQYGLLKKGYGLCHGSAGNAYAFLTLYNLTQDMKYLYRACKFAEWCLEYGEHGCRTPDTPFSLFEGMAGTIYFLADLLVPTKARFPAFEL
substance,measurement,setting,value
LAT9991-PAL: cyclic peptide of SEQ ID NO:12 (LAT9991) conjugated to the PAL (Photo-Activated Labelling) grouping (CRSVEGSCG; disulfide 1-8 (inferred); also: PAL group on N-terminal Cys-Arg part),Modified LANCL1 peptide sequence differentially detected,"25 μM probe, dependent peptide MS analysis",IDPHAPNEM(ox)LYGR
same,Most likely site for localization of the probe adduct on LANCL1,amino acid residues 171-174 of human LANCL1 (SEQ ID NO:56),PNEM
